Data taken from the RNAGym collection of RNA variant scans (doi:10.1073/pnas.2313332121).

B1: TPR t1 (parent)
chain: GACCAAUCUGCCCUCAGAGCUCGAGAACAUCUUCGGAUGCAGAGGAGGCAGGCUUCGGUGGCGCGAUAGCGCCAACGUCCUCAACCUCCAAUGCAUCCCACCACAUGAUGAUGCCUGAAGAGCCUUGGUUUUUUG

Variants of: B1
Test: polymerase ribozyme fitness, log enrichment relative to wild type (log ratio); higher = more active; in vitro selection for triplet polymerase activity
In short: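 Input and output libraries were sequenced on Illumina after a single in vitro selection round, run in triplicate on PCR-built, transcribed mutant libraries of each subunit of a heterodimeric triplet polymerase ribozyme. Selection annealed libraries to a biotinylated primer, the partner subunit and triplets, incubated them frozen at −7 °C, then gel-excised extended constructs for streptavidin-bead capture and RT-PCR. Genotypes with ≥10 input reads and ≥1 read per output were kept. Fitness is the logarithm, taken in base 2, of genotype enrichment divided by wild-type enrichment, using inverse-variance-weighted replicate averages.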

Row | Variant | polymerase ribozyme fitness (log ratio)
1 | GACCAAUCUGCCCUCAGAGCUCGAGAACAUCUUCGGAUGCAGAGGAGGCAGGCUUCGGUGGCGCGAUAGCUCCAACGUCCUCAACCUCCAAUGCAUCCCACCACAUGAUGAUGCCUGAAGAGCCUUGGUUUCUUG | -0.492
2 | GACCAAUCUGCCCUCAGAGCUCGAGAACAUCUUCGGAUGCAGAGGAGGCAGGCUUCGGUGGCGCGAUAGCGACAACGUCCUCAACUUCCAAUGCAUCCCACCACAUGUUGAUGCCUGAAGAGCCUUGGUUUUUUG | -5.12
3 | GACCAAUCUGCCCUCAGAGCUCGAGAACAUCUUCGGAUGCAGAGGAGGCAGGCUUCGGUGGCGCGAUAGCGACAACGUCCUGAACCUCCAAUGCAUCCCACCACAUGAUGAUGCCUGAAGAGCCUUGGUUUUUUG | -0.603
4 | GACCAAUCUGCCCUCAGAGCUCGAGAACAUCUUCGGAUGCAGAGGAGGCAGGCUUCGGUGGCGCGAUAGCGACAACGUCCUCAACCUCCAAUGCAUCCCACCACAUGAUGAUGCCUGAAGAGACUUGGUUUUUUG | 0.479
5 | GACCAAUCUGCCCUCAGAGCUCGAGAACAUCUUCGGAUGCAGAGGAGGCAGGCUUCGGUGGCGCGAUAGCGACAACGUCCUCAACCUCCAAUGCAUCCCACCACAUGAUGAUGCCUGAAGAGUCUUGGUUUUUUG | 1.5
6 | GACCAAUCUGCCCUCAGAGCUCGAGAACAUCUUCGGAUGCAGAGGAGGCAGGCUUCGGUGGCGCGAUAGCGACAACGUCCUCAACCUCAAAUGCAUCCCACCACAUGAUGAUGCCUGAAGAGCGUUGGUUUUUUG | 0.634
7 | GACCAAUCUGCCCUCAGAGCUCGAGAACAUCUUCGGAUGCAGAGGAGGCAGGCUUCGGUGGCGCGAUAGCGACAACGUCCUCAACUUCCAAUGCAUCCCACCACAUGAUGAUGCCUGAAGAGCCUUGGUUUUUUG | -0.17
8 | GACCAAUCUGCCCUCAGAGCUCGAGAACAUCUUCGGAUGCAGAGGAGGCAGGCUUCGGUGGCGCGAUAGCUCCAACGUCCUCAACCUCCAAUGCAUCCCACCACAUGAUGAUGCCUGAAGAGCCUUUGUUUUUUG | -1.02
9 | GACCAAUCUGCCCUCAGAGCUCGAGAACAUCUUCGGAUGCAGAGGAGGCAGGCUUCGGUGGCGCGAUAGCGACAACGUCCUCAACCUCCAAUGCAUCCCACCACAUGAUGAUGCCUGAAGGGCCUUGGUUUUUUG | 1.6
10 | GACCAAUCUGCCCUCAGAGCUCGAGAACAUCUUCGGAUGCAGAGGAGGCAGGCUUCGGUGGCGCGAUAGCGACAACGUCCUCAACCUCCAAUGCAUCCCACCACAUGAUGAUGCCUGAAGUGCCUUGGUUUUUUG | 2.22
11 | GACCAAUCUGCCCUCAGAGCUCGAGAACAUCUUCGGAUGCAGAGGAGGCAGGCUUCGGUGGCGCGAUAGCGACAACGUCCUCAACCUCCAAUGCAUCCCACCACAUGAUGAUGCCUGAAGCGCCUUGGUUUUUUG | 1.46
12 | GACCAAUCUGCCCUCAGAGCUCGAGAACAUCUUCGGAUGCAGAGGAGGCAGGCUUCGGUGGCGCGAUAGCUCCAACGUCCUCAACCUCCAAUGCAUCCCACCACAUGAUGAUGCCUAAAGAGCCUUGGUCUUUUG | -1.71
13 | GACCAAUCUGCCCUCAGAGCUCGAGAACAUCUUCGGAUGCAGAGGAGGCAGGCUUCGGUGGCGCGAUAGCUCCAACGUCCUCAACCUCCAAUGCAUCCCACCACAUGAUGAUGCCUGAAGAGCCUUGGUUUUAUG | -0.757
14 | GACCAAUCUGCCCUCAGAGCUCGAGAACAUCUUCGGAUGCAGAGGAGGCAGGCUUCGGUGGCGCGAUAGCGACAACGUACUCAACCUCCAAUGCAUCCCACCACAUGAUGAUGCCUGAAGAGCCUUGGUUUUUUG | -0.505
15 | GACCAAUCUGCCCUCAGAGCUCGAGAACAUCUUCGGAUGCAGAGGAGGCAGGCUUCGGUGGCGCGAUAGCGAUAACGUCCUCAACCUCCAAUGCAUCCCACCACAUGAUGAUGCCUGAAGAGCCUUGGUUUUUUG | -0.581
16 | GACCAAUCUGCCCUCAGAGCUCGAGAACAUCUUCGGAUGCAGAGGAGGCAGGCUUCGGUGGCGCGAUAGCUCCAACGUCCUCAACCUCCAAUGCAUCCCACCACAUGAUGAUGCCUGAAGAGCGUCGGUUUUUUG | 2.04
17 | GACCAAUCUGCCCUCAGAGCUCGAGAACAUCUUCGGAUGCAGAGGAGGCAGGCUUCGGUGGCGCGAUAGCUCCAACGUCCUCAACCUCCAAUGCAUCCCACCACAUGAUGAUGCCUGAAGAGCCUGGGUUUUUUG | -2.34
18 | GACCAAUCUGCCCUCAGAGCUCGAGAACAUCUUCGGAUGCAGAGGAGGCAGGCUUCGGUGGCGCGAUAGCUCCAACGUCCUCAACCUCCAAUGCAUCCCACCACAUGAUGAUGCCUGAAGAGCCUUGGUUAUUUG | 0.00469
19 | GACCAAUCUGCCCUCAGAGCUCGAGAACAUCUUCGGAUGCAGAGGAGGCAGGCUUCGGUGGCGCGAUAGCUCCAACGUCCUCAACCUCCAAUGCAUCCCACCACAUGAUGAUGCUUGAAGAGCCUUGGUUUUUUG | -1.41
20 | GACCAAUCUGCCCUCAGAGCUCGAGAACAUCUUCGGAUGCAGAGGAGGCAGGCUUCGGUGGCGCGAUAGCGACAACGUCCUCAACCUCCAAUGCAUCCCACCACAUGAUGAUGCCUGCAGAGCCUUGGUUUUUUG | -2.72
21 | GACCAAUCUGCCCUCAGAGCUCGAGAACAUCUUCGGAUGCAGAGGAGGCAGGCUUCGGUGGCGCGAUAGCGACAACGUCUUCAACCUUCAAUGCAUCCCACCACAUGAUGAUGCCUGAAGAGCCUUGGUUUUUUG | -0.793
